One molecule from publication PMC7933982 (The Journal of Cell Biology, 2021) can be followed below.

The target in this test is T1, GST-CBD (S. cerevisiae, UniProt P19524 1152-1574).
T1 sequence (looked up): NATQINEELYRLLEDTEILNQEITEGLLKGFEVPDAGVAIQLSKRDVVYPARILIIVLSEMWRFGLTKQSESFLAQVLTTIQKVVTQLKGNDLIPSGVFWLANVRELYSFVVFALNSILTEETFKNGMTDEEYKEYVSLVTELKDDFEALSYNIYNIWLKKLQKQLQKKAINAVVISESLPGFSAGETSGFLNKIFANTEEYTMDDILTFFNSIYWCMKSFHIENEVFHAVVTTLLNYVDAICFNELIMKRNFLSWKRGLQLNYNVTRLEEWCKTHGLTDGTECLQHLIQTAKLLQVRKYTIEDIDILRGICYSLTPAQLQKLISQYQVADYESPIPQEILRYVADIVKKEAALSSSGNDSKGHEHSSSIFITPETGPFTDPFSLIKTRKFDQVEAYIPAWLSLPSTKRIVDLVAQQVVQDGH
Briefly: pull-down.

B1: 6xHis-Pea2_(221–350) (domain or fragment, S. cerevisiae, UniProt P40091 221-350, looked up)
chain: EKNTSSPPISPNAAAIQEEDSSKKLEELETAFSDLQLAHNFLTKQFENDRAEYVQDIEKLTRTNRELQDKLLNNHSNLSKTEKKLHELEQENKELEKANNKLNSSRHNFGMSSPASSPVTWDPSSPSSVG
Regarding B1, the binding result was “binds”.
